Data on 140 substances can be found in the supplement of paper PMC12042874.

± gives the uncertainty stated by the source.

The nature of this series: amyloid nucleation score (Sup35N fusion, yeast selection) (log enrichment); library NNK2; higher = more nucleation; inactive = no reads after selection. The procedure, abridged: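 Nucleation score is defined as the DiMSum log enrichment of output over input reads, with centring on the mode score of non-aggregating sequences. A minimum of 100 input reads was required for each sequence. Reads came from Illumina sequencing of plasmid inserts from psi-negative yeast expressing Sup35N fused to peptides of 20 random codons, induced with 100 μM copper sulfate for 24 hours and grown 7 days at 30°C on medium lacking adenine and uracil.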
TKCVFIVCRLYVFDMVGLYV yielded an amyloid nucleation score of -0.573 ± 0.78. Next, LVAFFFVSPFGGGHIAIRLR: -0.114 ± 1.1. Next, PSVSRLIESNFCSSIRFFTH: -1.04 ± 0.64; FSVRLISFRSSLLLMSQDLL: 0.138 ± 1.1. The value for KVALL was -0.257 ± 0.76; that for YFNGERFTRFISMEE was -1.21 ± 1.1; that for TNGLLNYCSRYTDLDNGSYR was “inactive”.

With LAVKRMFSNFIFKAGTRNIW, the amyloid nucleation score entry is “inactive”. Next, RGNMTLIETALAIVQSFSNH: 9.064 ± 0.035; KYWFDGYLGYF: -1.14 ± 0.29. Turning to NTCGMRSLGKTFRIVSSLGS, the amyloid nucleation score was found to be 0.285 ± 0.43. The value for GRESKVWIPFTGALF was -1.04 ± 1.1; that for PGLPEERHNCKTYCHRTSRP was 0.016 ± 0.34. Next, LSGSPVYCYCRLR: -0.453 ± 0.78; LIAFMRF: 5.688 ± 0.042; KSRPSTV: -1.68 ± 1.

Substance SPFTTSRDFMHRTPLLCDTC came in with an amyloid nucleation score of 1.32 ± 0.33.

Substance FFLSRFLV showed an amyloid nucleation score of -0.27 ± 0.79. The value for SQALCDGALYTHFAISSIDR was “inactive”; that for VTVKYRVVTDVLRTMRNDSV was 0.297 ± 0.34; that for ILYMTDKLDQSSCLGLMSSH was -1.81 ± 0.78. The value for FVVGAES was -0.821 ± 0.48. The value for DCFFFKSWVSLGKIMLSTFS was -0.997 ± 1.1; that for VMWLSVRL was 0.535 ± 0.44; that for GDVQLRGMHESPYSPPSQGR was -0.127 ± 0.49. On to CGLLYREVSIGQGSPTGVRD, for which the amyloid nucleation score entry is “inactive”. The value for SFSKNALDNRFWGRFSFFFG was 1.3 ± 0.34. For VEGVFLISMPPWPFYRLPSR, the amyloid nucleation score was found to be 0.961 ± 0.81. The substance LFYKVFAYLFFVDVVCASKG displayed an amyloid nucleation score of 4.97 ± 0.062. Next, CPFESRIAST: 0.132 ± 0.26; QEVFSN: -0.849 ± 1.1; KLISCGCVLADWNMGYP: 3.76 ± 0.12. The value for GSFLFYCILPIYFLGAWMRV was -1.4 ± 0.78; that for AHQHWQRGFEEHPEIRFIHW was 4.29 ± 0.11. The value for LLVFNLIYPSVRKGFFIIYA was “inactive”; that for RIGMPMMSAYTMGLVTDRFT was 1.06 ± 0.4; that for VAFNCNIEIISPAGDGETFV was -0.489 ± 0.27. The substance VLVLDR came in with an amyloid nucleation score of 3.46 ± 0.073.

Substance HSAMFLYTKHVSPPGSWRVL showed an amyloid nucleation score of 1.6 ± 0.13. Next, VITLRGAPYTEWLLRALLAS: 0.734 ± 0.81. The value for SSNSEDDGNWMMLLSNKYRI was 0.559 ± 0.27. The value for FSYNMACLNKLLSLSLYRFS was -1.29 ± 0.44; that for NKRATALCNLHF was “inactive”; that for FMSICR was 1.47 ± 0.4. Regarding RSQGLWMHAGPSFSVGYPFG, the amyloid nucleation score amounted to 3.9 ± 0.085.

For the substance VSSRYCTCRLCHPWYSFWFS, the amyloid nucleation score is -0.625 ± 0.54. Next, GTLPYFKN: -0.641 ± 0.74; VDLYQVWSSCPVFVLWGYSC: 0.072 ± 0.79. Next, ATRCFSNWDTSACYMWKC: 8.074 ± 0.061; CMSVGGGLHG: 3.13 ± 0.071. Next, DGFYG: “inactive”. LRWRSCGNELDFKLNGLDFE: the amyloid nucleation score came to 0.586 ± 0.74. The value for NLRRCSHFHLACP was “inactive”; that for ASAYSPASRRSTDMADALV was 0.496 ± 0.31. The substance ICPPAWFKRVNDGGVYALNE yielded an amyloid nucleation score of 0.904 ± 0.48.

For the substance RVYMWLWIGWCRIG, the amyloid nucleation score amounted to 0.58 ± 0.51. VNTTDKWKVSEYKYQND gave an amyloid nucleation score of 0.254 ± 0.19.

Turning to DKTKE, the amyloid nucleation score result was “inactive”. The substance SFNEWLSR showed an amyloid nucleation score of -0.391 ± 0.55. SYVGICGAMNLCSETVSCMV: the amyloid nucleation score is -0.977 ± 0.41. Next, ITNDLSLYYVARVGRTDYHF: 1.13 ± 0.12; SMQFLCYKKLC: -0.565 ± 1.1; YCDCPVNICRRFPGHEHRGV: “inactive”. The value for IMCRRG was 0.698 ± 0.52; that for NSFFGLTVSKEEYLCFFYMF was “inactive”. The value for LRCHDGVKLSKSVCECCMYM was 2.37 ± 0.19.

RLRQMCFKRNSVKLLLWNRF came in with an amyloid nucleation score of 0.409 ± 0.8. Next, IVDISCI: -0.541 ± 1; LQTQFTAVC: 0.27 ± 0.22; LLFTGNLGFTVSRSLSRRDR: 6.945 ± 0.069. The value for MGVSNIDIVSRILNPGAAAS was 1.36 ± 0.41; that for KIIVHYIYRRIRLCDSNLKR was 8.398 ± 0.046; that for GSQGFPRRFSPSMPM was 0.886 ± 0.8. Next, IDNEMYFAHGIRGDSLL: “inactive”; IKAFWS: “inactive”.

Take CLKEMVKVCRGWWRANGSGR: the amyloid nucleation score turned out to be 0.433 ± 0.46. As to CDISRGLILYTHGLLFWTIR, the amyloid nucleation score entry was “inactive”.

Turning to VFRISLRSSLYML, the amyloid nucleation score is 4.13 ± 0.099. For the substance FVGDTIQVVIWLMIIYFWFF, the amyloid nucleation score is 0.959 ± 0.74.

Consider SKCNGFVVALMLVFTSSELD, for which the amyloid nucleation score result was “inactive”. Next, LRDTPLMGWYCFRSHLVTVS: 1.3 ± 0.51.

For SIRSS, the amyloid nucleation score result was “inactive”. Next, INSLTKAVYYSSHYYPVSLS: “inactive”; SPWGPLLAFTSKTNPIQWMT: -0.196 ± 0.46; FKGSWHAFECEAYEYAWV: -0.018 ± 1.1. As for ALCKMQLITSSYQGPATEDL, the amyloid nucleation score is -0.168 ± 0.76.

Take AISRRALKTHHFKWGCNVG: the amyloid nucleation score was found to be 0.266 ± 0.19. LTVTW yielded an amyloid nucleation score of 1.2 ± 0.21. The substance GYYYLFFILG gave an amyloid nucleation score of 4.78 ± 0.075. Next, GEHSGTHNFKCFVSIIRLSR: 0.305 ± 1; GFVPGIMEF: 0.808 ± 0.52; NYSDWRVSTEIRSMGRYRPH: 0.069 ± 0.65. For TRINMGIFCLQDKVPMLRDE, the amyloid nucleation score came to 3 ± 0.082. The value for GVLYWALLDGGVQRGQDMKL was 0.641 ± 0.62; that for DYVCGGGFLTKDVSACGLYV was 0.685 ± 0.46; that for KVYATVDFDLLGQAPTSAMN was 4.83 ± 0.091.

Take TIQRRQFVNPDSVVMLRINY: the amyloid nucleation score was -0.704 ± 0.76.

As to STRNSFPSDKAYLS, the amyloid nucleation score was -0.605 ± 0.74. On to REALDHWVDRVTVRWVRICI, for which the amyloid nucleation score is -0.474 ± 0.35. Regarding VAWLW, the amyloid nucleation score was found to be 0.909 ± 0.21.

As for SSYGWVMLMEDFW, the amyloid nucleation score is -1.23 ± 0.62. The value for VFAYIHFVTLGGCLLGF was 1.3 ± 0.47; that for WSGDFLRYHCHAGDRCMMTM was -0.78 ± 0.63. The value for GRAYHESLSGDFVLFSSRRC was -0.815 ± 0.63; that for RDIRWIYEDTLISSGIWRSL was 2.62 ± 0.11.

ARYLITTAQVPVLGPRSQHK had an amyloid nucleation score of 0.073 ± 0.41. The value for TVGEPIIRLYRFVRFFCLAN was -1.79 ± 0.78. Next, LWNSIDNS: “inactive”. Consider VPIKALLPHSKFGNQSRFNY, for which the amyloid nucleation score worked out at 0.438 ± 0.4. Substance AWCFLYLLWLPGIQN displayed an amyloid nucleation score of -0.226 ± 1.1. The value for RTRSSYGVVLKIRKWCPEVA was 1.18 ± 0.61; that for VKMMWNCSLVDALATRGNVV was 0.505 ± 0.54.

In the case of VDYKSFRNYTFMDHYCSPYN, the amyloid nucleation score came out at 1.08 ± 0.18. The value for HERGTNVLYTLVEWGARAVS was 1.16 ± 0.49; that for ALFIEISPLTINLFTNAKSL was -1.06 ± 0.76.

Turning to GKPTFFMG, the amyloid nucleation score was 0.6 ± 0.74. For the substance VLWNKSALNSKNSRTG, the amyloid nucleation score is 2.57 ± 0.1.

YLYILVRNGGASSVC yielded an amyloid nucleation score of -0.635 ± 0.4. As for ADSVYAVRRKAV, the amyloid nucleation score stood at 0.356 ± 0.8. Next, WARCHVLA: -0.292 ± 0.55. Consider CNFSCGPKNQKNSMILWILN, for which the amyloid nucleation score result was “inactive”. Next, GSLTDLFGWDESCFRCTALC: 3.79 ± 0.092; MATDDIN: -0.359 ± 0.79. Next, MFAFMNFRRTIVVYEVWGSY: “inactive”; KVTARPFRQC: 4.997 ± 0.045; SVTCSSRCVSQRRFLVGPWN: -1.35 ± 0.41. The value for SFPVWPVMYGGNCFSCFSLG was 9.094 ± 0.063; that for VNAEGTVMQSWHCHCDMSVL was 6.245 ± 0.043; that for IWLTVVESRFVTGVVGECYW was 0.255 ± 0.45. Regarding LRGQEKLWGVACSLVLIVTA, the amyloid nucleation score was 1.39 ± 0.15. Next, VAFGLMDQDIFSRRILTRSS: “inactive”; EVELALGGSELGGVVSWLM: 1.77 ± 0.27; LFDVMIQTRCLYHWNSPHNL: 5.14 ± 0.065. As for GKCMV, the amyloid nucleation score is 4.02 ± 0.095. Next, FRMGY: “inactive”; IRCVGRVVFCCNFS: 9.965 ± 0.078.

Substance LRGLVMRCAFIVKGLGLCEG displayed an amyloid nucleation score of 0.979 ± 0.22.

STMWTIGSWLKAGALSFGFL displayed an amyloid nucleation score of -0.441 ± 0.36. Substance VEVSECVHVIMYFRISYNKL showed an amyloid nucleation score of 3.4 ± 0.15. The value for DRPALCSLCSETSVVNTLHL was 5.74 ± 0.064.
